Measurements as given in the nanobody polyreactivity screen of Harvey et al. (2022).

experiment: yeast display, Sf9 membrane polyspecificity reagent, FACS + sequencing; frameworks hold sequencing errors
In short: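 Synthetic nanobody libraries on Saccharomyces cerevisiae BJ5465 were galactose-induced for 36–48 hours, stained 1 hour at 4 °C with 10% biotinylated, detergent-solubilized Sf9 membrane reagent and enriched on streptavidin microbeads. FACS then separated cells into low and high (top ~1%) gates by anti-HA (expression) and streptavidin (reagent binding) fluorescence. Genes were colony-PCR amplified, MiSeq 2 × 250 sequenced and CDR-length filtered. A clone's polyreactivity label is that of its gate of origin.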

| Sequence | polyreactivity (PSR sort gate) |
| --- | --- |
| QVQLVESGGCLVQAGGSLRLSCAASGYIFDHYAMGCYRQAPGKERELVAAISRSAGSTYYADSVKGRFTISRDNAKNTVYLQMNSLKPEDTAVYYCNAVVAVRSWRKYEYWGQGTQVTVSS | high polyreactivity |
| QVQLVESGGGLVQAGGSLRLSCAASGFTFGRYAMGWYRQAPGKERELVAGISSGGRTNYADSVKGRFTISRDNAKNTVYLQMNSLKPEDTAVYYCNARWYRYPPRVRLYYWGQGTQVTVSS | high polyreactivity |
| QVQLVESGGGLVQAGGSLRLSCAASGFIFSRNAMGWYRQAPGKERELVARISRSGGRTYYADSVKGRFTISRDNAKNTVYLLMNSLKPEDTAVYYCATDHVRQSPYDYWGQGTQVTVSS | high polyreactivity |
| QVQLVESGGGLVQAGGSLRLSCAASGFTFSYYAMGWYRQAPGKERELVASISRSGNTYYADSVKGRFTISRDNAKNTFYLQMNSLKPEDTAVYYCAAKRKSYYSYNFDYWGQGTQVTVSS | high polyreactivity |
| QVQLVESGGGLVQARGSLRLSCAASGFNISNYAMGWYREAPGKESELVAAIRRSGGSTYYADSVKGRFTISRDNAKNTVYLQMNSRKPEDTAVYYCAAYPKRGSRYDYWGLGTQVTVSS | high polyreactivity |
| QVQLVESGGGLVQAGGSLRLSCAASGFIFLYYAMGWYRQAPGKERELVADISRGADTKYADSVKGRFTISRDNAKNTVYLQMNSLKPEDTAVYYCATDITTFWVPYPGVELGYWGQGTQVTVSS | low polyreactivity |
| QVQHVESGGGLVQAGGSLRLSCAASRSTFYYYAMGWYRQAPGKERELVAAISRGGGSTYYADSVKGRFTISRDNAKNTVYLQMNSLKPEDTADDYCAARRVGGGFYTWRNPAYEYWGQGTQVTVSS | high polyreactivity |
| QVQLVESGGGLVQAGGSLRLSCAASGSTLVRYAMGWYRQAPGKERELVASISYSGGSTHYADSVKGRFTISRDNAKNTVYLQMNSLKPEDTAVYYCAARRYYSWGGHYYWGQGTQVTVSS | high polyreactivity |
| QVQLVESGGGLVQAGGSLRLSCAASGSIFYRNAMGWYRQTPGKERELVAAISSDGSTNYADSVKGRFTFSLDNAKNTVYLQMNRLNPEYTAVYYCAAPWTQFLDYWGQGTQVTVSS | low polyreactivity |
| QVQLVESGGGLVQAGGSLRLSCAASGSTFGWNTMGWYRQAPGKERELVAAISWYGDRTYYADSVKGRFTISRDNAKNTVYLQMNSLKPEDTAVYYCARQRYYGYYYWGQGTQVTVSS | high polyreactivity |
| QVPLVESGGGLLQAGGSLRLSCSASGYTFSKYAMGWYRQAPGKERELVAAISFSGGSTYYADSVKGRFTISRDNAKNTVYLLMNSLKPEDTAVYYCDKYTITNYDYWGQGTLVTVSS | low polyreactivity |
| QVQLVESGGGLVQAGGSLRLSCAASGITFSGNAMGWYIQARGKERELVAGISRRGGSTYYADSVKGSFTISRDNAKNTVYLQINCLKPEATAVYYCADGRDRYRGVAYDYWGQGTQVTVSS | high polyreactivity |
| QVQLVESGGGLVQAGGSLRLSCAASGLIFENNAMGWYRQAPGKERELVAAITYSGGSTYYADSVKGRFTISRDNAKNTVYLQMNSLKPEDTAVYYCAAESYRRYGYDYWGQGTQVTVSS | high polyreactivity |
| QVQLVESGGGLVQAGGSLRLSCAASGSIFVYYAMGWYRQAPGKERELVAAITWSSGRTYYADSVKGRFTISRDNAKNTVYLQMNSLKPEDTAVYYWNVLTRYYLGYDYWGQGTQVTVSS | high polyreactivity |
| QVQLVDSGGGLVQAGGSLRLSCAASGITFWSYAMGWYRPAPGKERELVAGISRRGGSTYYADSVKGRFTISRDNAKNTVYLQMNSLKPEDTAVYYCAARAYPTPVRSFLYTDIVYYWGQGTQVTVSS | high polyreactivity |
| QVQLVASGGGLVQAGGSLRLSCAASGRIFSSNAMGWSRQAPGKEWELVAAITKSGGGTYYADSVKGRFTISRDNAKNTVYLQLNSLKPEDTAVYYCAKGQYRSSGYDYWGQGTQVTVSS | low polyreactivity |
| QVQLVESGGGLVQAGGSLRLSCAASGSIFYISAMGWYRQAPGKERELVAAISWIDDTTYYADSVKGRFTISRDNAKNTVYLQMNSLKPEDTAVYYCAAELENVYAGGQMDYWGQGTQVTVSS | high polyreactivity |
| QVQLVESGGGLVQAGGSLRLSCAASGRTFKYYAMGWYRQAPGKERELVATITYSGGSTYYADSVKGRFTISRDNAKNTVYLQMNSLKPEDTAVYYCNKVIFLSQSSYSFHYAYDYWGQGTQVTVSS | high polyreactivity |
| QVQLVESGGGLVEAGGSLRLSCAASGGIFKIYSMGWYIQAPGKERELVAGINWSDTGTYYADSVKGRFTISRDNAKNTVYLQMNSLKPEDTAVYYCAVSGYPVYITYVSYDYDYWGQGTQVNVSS | low polyreactivity |
| QVQLVESGGGLVQAGGSLRLSCAASGSTFRDNSMGWYRQAPGKERELVASITKRGTSTYYADSVKGRFTISRDNAKNNVYLHMNSLKPEETSVYYCAVRRYGKTAGYDYWGQGTQVTVSS | low polyreactivity |
| QVQLVESGGGLVQAGGSLRLSCAASGRTFERYALGWYRQAPGKERELVAAIDFSGGSTSYADSVKGRFTISRDNAKNTVYLQMNSLKPEDTAVYYCAARETAHGGKEDDYWGQGTQVTVSS | low polyreactivity |
| QVQLVESGGGLDQAGVSLRLSCAASGRTFGGYAMGWYRQAPGKERELVASITSGGSTYYADSVKGRFTISRDNAKNTVYLQMNSLKPEDTAVYYCAADTYFETSTRAIPTNDYWGQGTQVTVSS | low polyreactivity |

| Sequence | polyreactivity (PSR sort gate) |
| --- | --- |
| QVQLVESGGGLVQAGGSLRLSCAASGSIFFRNAMGWYRQAPGKERELVAAITSGGSTYYADSVKGRFTISRDNAKNTVYLQMNSLKPEDTAVYYCNREFWRSSSYRYYYWGQGTQVTVSS | high polyreactivity |
| QVQLVESGGGLVQAGGSLRLSCAASGITFSRYAMGWYRQAPGKERELVAAISWSGTSTYYADSVKGRFTISRDNAKNTVYLQMNSLKPEDTAVYYCAASYGYYRYGYWGQGTQVTVSS | high polyreactivity |
| QVQLVESGGGLVQEGRSLRLSCAASGLTFQYYAMGWYRPAPGKERELVAAISSGGDTYYADSVKGRFTISRDNAKNNVYFQMYSVKREDTAVYYCAARVVLYSRSTYYYWGQGTQVTVSS | high polyreactivity |
| QVQLVESGGGLVQAGGSLRLSCAASGRTFYPNAMGWYRQAPGKERELVAAITWRSGSTYYADSVKGRFTISRDNAKNTVYLQMNSLKPEDTAVYYCNADSDYPYYPGKFDYWGQGTQVTVSS | low polyreactivity |
| QVQLVESGGGLVQAGGSLRLSCAASGFTFYSYAMGWYRQAPGKEREFVAAGSTYYADSVKGRFTISRDNAKNTVYLQMNSLKPEDTAVYYCAADPWIYVQSYGYWGQGTQVTVSS | low polyreactivity |
| QVQLVESGGGLVQAGGSLRLSCAASGLTFYVYTMGWYRQEPGKERELVAAITGSGGSTFYADSVKGRFTISRDNAKNTVFIQMNSLKREDTAVYYCAAYYYMSDGYDYWGQGTQVTVSS | low polyreactivity |
| QVQLVESGGGLVQAGGSLRLSCAASGRTFRAYAMGGYRQAPGKERELVAAITSGGSTYYADSVKGRFTISRDNAKNTVYLQMNSLKPEDTAVYYCNRRGWSRTHQYDYWGQGTQVTESS | high polyreactivity |
| QVQLVESGGCLVQAGGSLRLSCAASGSIFTTYAMGWYRQAPGKERELVAAISVSGSSTYYADSVKGRFTISRDNAKNTVYLQMNSLKPEDTAVYYCNKAFRSVRPRRRYDYWGQGTQVTVSS | low polyreactivity |
| QVQLVEAGGGLVQAGGSLRLSCAASGSTFAGYAMGWYRQAPGKERELVATITYSGGSTYYADSVKGRFTISRDNAKNTVYLQMNSLKPEDTAVYYCAKKASYWWGYEYWGQGTQVTVSS | low polyreactivity |
| QVQLVESAGGLVQAGGSLRLSCPASGGIFSWYHMGWYRQEPGKERELVAAISWSGGSTYYADSVKGRFTISRDNAKNTVYLLMNSLKPEDTAVYYCADYTADDYDYWGQGTQVTVSS | high polyreactivity |
| QVQLVESGGGLVQAGGSLRLSCAASGSTFSKYAMGCYRQAPGKERELVAAISSGGRTNYADSVKGRFTISRDNAKNTVYLQMNSLKPEDTAVYFCAALLGYWAYYYWGQGSQVTVSS | low polyreactivity |
| QVQLVESGGGLVQAGGRLRLICAASGRIFYRNAMGWYRQAPGKERELVAAISYSGGRTYYADSVKGRFTISRDIAKYTVYLQMNRLKPEDTAVYYCAVYGYHEGGYWGQVTQVTVSS | high polyreactivity |
| QVQLVESGGGLVQAGGSLRLSCAASGRTFRSNAMGWDRQAPGKEREFVAAISSGGSTKYADSVKGRFTISRDNAKNTVYLQMNSLKPEDTAVYYCAAVSHSRYWGQGTQVTVSS | high polyreactivity |
| QVQLVESGGGLVQAGGSLRLSCAASGSIFGYYTMGWYRQAPGKERELVARITRGGSTYYADSVKGRFTISRDNAKNTVYLQMNSLKPEDTAVYYCAARRVNAGWTYGLRGNYWGQGTQVTVSS | low polyreactivity |
| QVQIVESGGGLVQAGGSLRLSCAASGSTVQYYAMGWYRQAPGKERELVAAISYTGGSTYYADSVKARFTISRDNAKNSVYLEMSSLKPEDTAVYYCAAGRRGSDTGTEYYWGQGTQVTVSS | high polyreactivity |
| QVQLVESGGGLVQAGGSLRLSCAASGSTFYHYAMGWYRKAPGKERELVAAISTSGGRTYYADSVKGRFTISRDNAKNTVYLQLNSLKPEDTAVYYCAARPGSWFPSVPSYNYWGQGTQVTVSS | low polyreactivity |
| QVQLVESGGGLVQAGGSLRLSCAASGSTFDRYAMGWYRQAPGKERELVAAITGSGGRTYYADSVKGRFTISRDNAKNTVYLQMNSLKPEDTAVYYCAARRSGYYLYSVDYWGQGTQVTVST | high polyreactivity |
| QVQLVESGGGLVQAGGSLRLSCAASGFTFSHYAMGWYRQAPGKERELVAAITASGGNTYYADSVKGRFTISRDNAKNTVYLQMNSLKPEDTAVYYCNAVSLKFTRKFDYWGQGTQVTVSS | high polyreactivity |
| QVQLVESGGGLVQAGGSLRLSCAASGYIFTSYATMGWYRQAPGKERELVATISSGGSTNYADSVKGRVTISRDNAKNTVYLQMNSLKPEDTAVYYCYADRFYTYWGYSWVYPSGSWGQGTQVTVSS | low polyreactivity |
| QVQLVESGGGLVQAGGSLRLSCAASGRIFYPYVMGWYRQAPGKERELVAAITGGGSTYYADSVKGRFTISRDNAKNTVYLQMNSLKPEDTAVYYCAKRSYGDRDERYDSWGQGTQVTVSS | low polyreactivity |
| QVQLVESGGGLVQAVGRLRLSCAASGLTFQYYAMGWYRQAPGKERELDAAISRSGGRSYYADSVKGRFTISRDNAKYTVYLQMISLKPEDSAVSYCNAVRRFASPTRHYYWGQGTQVTVSS | high polyreactivity |
